Assay: SPR affinity of His-tagged PikAIII ACPdd for nickel-NTA sensor chip
Assay type: binding
Settings: BIAcore 3000, nickel-loaded NTA sensor chip, HBS-P+E pH 7.4

Kd: 4 ± 0.04 nM
B1: His-tagged PikAIII ACPdd: C-terminal (ACP-side) docking domain of PikAIII, pikromycin PKS (protein)
chain: LAPAEPAPTDWEGRVRRALAELPLDRLRDAGVLDTVLRLTGIEPEPGSGGSDGGAADPGAEPEASIDDLDAEALIRMALGPRNT
modifications: left off: His6, N-terminal, kept

Reference: PMC2853223 (ACS chemical biology, 2009)
